Experimental data from patent publication US20260167684A1 (MERIDA BIOSCIENCES, published 2026).
Changes are numbered by the printed parent chain. In names and notes the source's numbering stands.

Experiments:
FcγRIIA167H [1] = target: T1, FcγRIIA167H (UniProt P12318 36-218); test: SPR, molecule captured on the sensor chip, FcγRIIA167H as analyte
T1 construct: Soluble protein used in SPR
T1 sequence (looked up): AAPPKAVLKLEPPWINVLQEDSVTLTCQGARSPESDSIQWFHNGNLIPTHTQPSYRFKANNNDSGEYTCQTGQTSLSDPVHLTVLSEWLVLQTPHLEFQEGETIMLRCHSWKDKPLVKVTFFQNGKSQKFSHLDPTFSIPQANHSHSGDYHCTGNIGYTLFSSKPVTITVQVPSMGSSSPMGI
Method: (§1) Binding assays using SPR were performed to determine the binding affinity of the exemplary molecules. Molecules were captured on a CM5 SPR chip. Increasing concentrations of FcγR analyte (FcγRIIA167H, FcγRIIA167R or FcγRIIB) were subsequently injected over the captured molecules and a single dissociation performed using single cycle kinetics. The data was then analyzed using steady state analysis which is suitable for low affinity interactions. In particular, a plot of response at equilibrium against the molecule concentration was generated.

FcγRIIB [2] = target: T2, FcγRIIB (human, UniProt P31994 46-217, limits assumed); test: SPR; molecule captured on CM5 chip, FcγR as analyte; steady-state fit
T2 construct: Soluble protein used in SPR
T2 sequence (looked up): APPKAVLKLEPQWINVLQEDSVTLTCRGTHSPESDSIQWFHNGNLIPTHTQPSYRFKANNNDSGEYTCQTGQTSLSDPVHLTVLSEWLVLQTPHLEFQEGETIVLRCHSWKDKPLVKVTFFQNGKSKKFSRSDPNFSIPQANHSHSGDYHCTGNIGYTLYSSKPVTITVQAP
Method: as §1

FcγRIIA167R [3] = target: T3, FcγRIIA167R (UniProt P12318 36-218); test: SPR, molecule captured on the sensor chip, FcγRIIA167R as analyte
T3 construct: Soluble protein used in SPR
T3 sequence (looked up): T1 sequence (looked up) with H132R
Method: as §1

FcγRIIB [4] = target: T2, FcγRIIB; test: SPR, molecule captured on the sensor chip, FcγRIIB as analyte; steady state plot of response against analyte concentration
human C1q = target: T4, human C1q (human, UniProt P02745 23-245; P02746 28-253; P02747 29-245); test: ELISA (n=2), serial dilutions of the molecule coated on the plate, human C1q at 5 µg/mL, anti-C1q HRP detection
T4 construct: also called complement (C1q)
Method: An IgG4 was used as a negative control.
Varying dilutions of each exemplary molecule or one of the controls were tested for binding to C1q by ELISA where serial dilutions of molecules or controls were coated on a plate (at 0.01 μg/mL, 0.1 μg/mL, 1.0 μg/mL, 10.0 μg/mL, 100.0 μg/mL, and 1000 μg/mL) overnight at 4 C. After blocking and subsequent wash steps, human C1q at 5 μg/mL was added to the ELISA plate for 1 hour at room temperature. The plate was washed and a sheep polyclonal anti-C1q HRP antibody at 1:200 dilution was added and incubated for an additional 1 hour. Development of the ELISA plate was carried out by addition of TMB. Color development was then stopped with addition of 3N HCl. Plate absorbance was read at 450 nm using a plate ready.

[5] = target: T5, FcγRIIB expressed on cells (CHO-FcγRIIB+ cells; primary human cells that express FcγRIIB) (human, UniProt P31994 43-310); test: flow cytometry, CHO cells expressing FcγRIIB, molecule pre-complexed with M22-PE at 1:1 or 4:1 molar ratio, with and without anti-FcγRIIB antibody 2B6
T5 construct: whole, on cells; also called FcγRIIB-expressing CHO cells
T5 sequence (looked up): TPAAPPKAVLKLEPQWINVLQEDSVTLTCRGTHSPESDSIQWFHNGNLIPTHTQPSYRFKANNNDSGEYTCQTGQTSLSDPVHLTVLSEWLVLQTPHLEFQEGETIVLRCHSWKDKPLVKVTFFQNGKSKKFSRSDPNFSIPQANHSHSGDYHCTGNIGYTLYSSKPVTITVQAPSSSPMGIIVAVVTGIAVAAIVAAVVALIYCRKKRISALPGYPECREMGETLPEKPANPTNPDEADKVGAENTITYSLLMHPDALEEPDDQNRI
Method: Cells expressing FcγRIIB are seeded in a 96-well plate and stained with Live/Dead Violet Fixable Dye. Next, the pre-complexed molecule and autoantibody are incubated with the cells at various concentrations at either 4C (to assess binding) or 37C (to assess uptake). After incubation, cells are washed with PBS (binding) or acidic media to remove surface-bound complexes (uptake). Cellular fluorescence is determined by flow cytometry.

FcγRIIA167R [6] = target: T3, FcγRIIA167R; test: SPR; molecule captured on CM5 chip, FcγR as analyte; steady-state fit
Method: as §1

FcγRIIA167H [7] = target: T1, FcγRIIA167H; test: as above
Method: as §1

T4 sequence (P02745 23-245 limits assumed, chain 1 of 3): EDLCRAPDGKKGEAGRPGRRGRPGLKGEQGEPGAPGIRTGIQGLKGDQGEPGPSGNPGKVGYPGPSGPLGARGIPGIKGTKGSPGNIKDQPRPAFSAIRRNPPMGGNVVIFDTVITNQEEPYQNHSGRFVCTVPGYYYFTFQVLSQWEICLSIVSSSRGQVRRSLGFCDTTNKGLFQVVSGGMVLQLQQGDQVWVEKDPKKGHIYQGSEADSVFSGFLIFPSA
T4 sequence (P02746 28-253 limits assumed, chain 2 of 3): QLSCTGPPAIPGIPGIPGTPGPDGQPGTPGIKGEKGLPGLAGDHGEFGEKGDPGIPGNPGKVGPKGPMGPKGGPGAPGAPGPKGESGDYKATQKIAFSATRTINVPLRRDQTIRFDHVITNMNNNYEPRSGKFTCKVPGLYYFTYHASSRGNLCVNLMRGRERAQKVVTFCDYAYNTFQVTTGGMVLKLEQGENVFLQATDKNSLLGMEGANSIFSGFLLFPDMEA
T4 sequence (P02747 29-245 limits assumed, chain 3 of 3): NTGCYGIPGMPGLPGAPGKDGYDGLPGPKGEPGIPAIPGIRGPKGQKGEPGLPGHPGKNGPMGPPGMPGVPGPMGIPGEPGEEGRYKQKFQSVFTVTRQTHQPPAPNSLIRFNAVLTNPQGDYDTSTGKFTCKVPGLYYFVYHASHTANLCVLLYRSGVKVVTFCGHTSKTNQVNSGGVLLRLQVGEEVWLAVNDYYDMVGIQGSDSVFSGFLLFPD

B1: Variant G2 (Fc fusion)
chain 1: MGCSSPPCECHQEEDFRVTCKDIQRIPSLPPSTQTLKLIETHLRTIPSHAFSNLPNISRIYVSIDVTLQQLESHSFYNLSKVTHIEIRNTPNLTYIDPDALKELPLLKFLGIFNTGLKMFPPLTKVYSTDIFFILEITDNPYMTSIPRNAFQGLCNETLTLKLYNNGFTSVQGYAFNGTKLDAVYLNKNKYLTVIDKDAFGGVYSGPSLLDVSQTSVTALPSKGLEHLKELRARNTWTLDKTHTCPPCPAPVDFRDPLVFLFPPKPKDTLMISRTPEVTCVVVDVDPEDPEVKFNWYVDGVEVHNAKTKPQEEQYNGAYRVVSVLTVLHQDWLNGKEYKCKVSNKLAPHPIIKTISKAKGQPREPQVYTLPPCRDELTKNQVSLWCLVKGFYPSDIAVEWESNGQPENNYKTTPPVLDSDGSFFLYSKLTVDKSRWQQGNVFSCSVMHEALHNHYTQKSLSLSPGK
chain 2: DKTHTCPPCPAPVDFRDPLVFLFPPKPKDTLMISRTPEVTCVVVDVDPEDPEVKFNWYVDGVEVHNAKTKPQEEQYNGAYRVVSVLTVLHQDWLNGKEYKCKVSNKLAPHPIIKTISKAKGQPREPQVCTLPPSRDELTKNQVSLSCAVKGFYPSDIAVEWESNGQPENNYKTTPPVLDSDGSFFLVSKLTVDKSRWQQGNVFSCSVMHEALHNHYTQKSLSLSPGK
notes: Knob-in-hole heterodimer; also called TSHR260 2P2R huIgG1 Fc E233V/L234D/L235F/G236R/G237D/S239L/S267D/R292Q/H268P/S298G/T299A/A327L/L328A/A330H/E333I
binding result (FcγRIIA167H [1]): no binding (tested: about 2.4e-6 M)
Kd (FcγRIIB [2]): 2610 nM

B2: Variant G1 (Fc fusion)
chain 1: B1 chain 1 with Q311R
chain 2: B1 chain 2 with Q72R
notes: Knob-in-hole heterodimer; also called TSHR260 2P2R huIgG1 Fc E233V/L234D/L235F/G236R/G237D/S239L/S267D/H268P/S298G/T299A/A327L/L328A/A330H/E333I
binding result (FcγRIIA167H [1]): no binding (tested: about 2.4e-6 M)
Kd (FcγRIIB [2]): 2620 nM

B3: Variant G3 (Fc fusion)
chain 1: B1 chain 1 with D286S
chain 2: B1 chain 2 with D47S
notes: Knob-in-hole heterodimer; also called TSHR260 2P2R huIgG1 Fc E233V/L234D/L235F/G236R/G237D/S239L/H268P/R292Q/S298G/T299A/A327L/L328A/A330H/E333I
binding result (FcγRIIA167H [1]): no binding (tested: about 2.4e-6 M)
Kd (FcγRIIB [2]): 3650 nM
binding result (FcγRIIA167R [3]): no binding (tested: about 2.4e-6 M)

B4: Variant E3 (Fc fusion)
chain 1: MGCSSPPCECHQEEDFRVTCKDIQRIPSLPPSTQTLKLIETHLRTIPSHAFSNLPNISRIYVSIDVTLQQLESHSFYNLSKVTHIEIRNTPNLTYIDPDALKELPLLKFLGIFNTGLKMFPPLTKVYSTDIFFILEITDNPYMTSIPRNAFQGLCNETLTLKLYNNGFTSVQGYAFNGTKLDAVYLNKNKYLTVIDKDAFGGVYSGPSLLDVSQTSVTALPSKGLEHLKELRARNTWTLDKTHTCPPCPAPELLGGDSVFLFPPKPKDTLMISRTPEVTCVVVDVSHEDPEVKFNWYVDGVEVHNAKTKPREEQYNSTYRVVSVLTVLHQDWLNGKEYKCKVSNKALPAPIEKTISKAKGQPREPQVYTLPPCRDELTKNQVSLWCLVKGFYPSDIAVEWESNGQPENNYKTTPPVLDSDGSFFLYSKLTVDKSRWQQGNVFSCSVLHEALHSHYTQKSLSLSPGK
chain 2: DKTHTCPPCPAPELLGGDSVFLFPPKPKDTLMISRTPEVTCVVVDVSHEDPEVKFNWYVDGVEVHNAKTKPREEQYNSTYRVVSVLTVLHQDWLNGKEYKCKVSNKALPAPIEKTISKAKGQPREPQVCTLPPSRDELTKNQVSLSCAVKGFYPSDIAVEWESNGQPENNYKTTPPVLDSDGSFFLVSKLTVDKSRWQQGNVFSCSVLHEALHSHYTQKSLSLSPGK
notes: Knob-in-hole heterodimer; also called TSHR260 2P2R huIgG1 Fc P238D/LS; TSHR260 2P2R huIgG1 with P238D and LS
binding result (FcγRIIB [4]): binds
binding result (human C1q): no binding (tested: 100 µg/mL)
binding result [5]: binds

B5: Variant G6 (Fc fusion)
chain 1: B4 chain 1 with L253D, G255N, D257P, S286E, L447M, S453N
chain 2: B4 chain 2 with L14D, G16N, D18P, S47E, L208M, S214N
notes: Knob-in-hole heterodimer; also called TSHR260 2P2R huIgG1 Fc L234D/G236N/S267E
binding result (FcγRIIA167H [1]): no binding (tested: about 2.4e-6 M)
Kd (FcγRIIB [2]): 335 nM

B6: Variant G12 (Fc fusion)
chain 1: B4 chain 1 with G256D, P290G, A349R, D375E, L377M, L447M, S453N
chain 2: B4 chain 2 with G17D, P51G, A110R, D136E, L138M, L208M, S214N
notes: Knob-in-hole heterodimer; also called TSHR260 2P2R huIgG1 Fc G237D/P238D/P271G/A330R
Kd (FcγRIIA167R [6]): 369 nM
Kd (FcγRIIB [2]): 22.3 nM
Kd (FcγRIIA167H [7]): 3810 nM

B7: Variant G14 (Fc fusion)
chain 1: B4 chain 1 with D257P, S258D, H287D, L347W, L447M, S453N
chain 2: B4 chain 2 with D18P, S19D, H48D, L108W, L208M, S214N
notes: Knob-in-hole heterodimer; also called TSHR260 2P2R huIgG1 Fc S239D/H268D/L328W
Kd (FcγRIIA167R [6]): 4.32 nM
Kd (FcγRIIB [2]): 30.9 nM
Kd (FcγRIIA167H [7]): 114 nM

B8: Variant G13 (Fc fusion)
chain 1: B4 chain 1 with G256D, D289E, P290G, A349R, D375E, L377M, L447M, S453N
chain 2: B4 chain 2 with G17D, D50E, P51G, A110R, D136E, L138M, L208M, S214N
notes: Knob-in-hole heterodimer; also called TSHR260 2P2R huIgG1 Fc G237D/P238D/D270E/P271G/A330R
Kd (FcγRIIA167R [6]): 1790 nM
Kd (FcγRIIB [2]): 127 nM

B9: Variant G4 (Fc fusion)
chain 1: B4 chain 1 with E252D, G256D, H287D, P290G, A349R, L447M, S453N
chain 2: B4 chain 2 with E13D, G17D, H48D, P51G, A110R, L208M, S214N
notes: Knob-in-hole heterodimer; also called TSHR260 2P2R huIgG1 Fc E233D/G237D/P238D/H268D/P271G/A330R
Kd (FcγRIIA167R [6]): 836 nM
Kd (FcγRIIB [2]): 55.6 nM
